PMC5696371, “The HSF1–PARP13–PARP1 complex facilitates DNA repair and promotes mammary tumorigenesis” (Nature Communications, 2017)

Molecular target: T1, hPARP13-His (human, UniProt Q7Z2W4 1-902)
T1 construct: human PARP13 cDNA in pET21a, His tag at the C terminus; also called His-tagged hPARP13; source: E. coli, purified (Ni Sepharose 6 Fast Flow); not shown: His, C-terminal, kept
Experiment: pull-down; purified GST fusion proteins and purified hPARP13-His mixed in NT buffer (50 mM Tris-HCl pH 7.5, 150 mM NaCl, 1 mM EDTA, 0.5% NP40) for 1 h at 4 °C, then glutathione-sepharose beads 2 h at 4 °C; immunoblotting
Conditions: both partners purified

T1 sequence (Q7Z2W4 whole entry): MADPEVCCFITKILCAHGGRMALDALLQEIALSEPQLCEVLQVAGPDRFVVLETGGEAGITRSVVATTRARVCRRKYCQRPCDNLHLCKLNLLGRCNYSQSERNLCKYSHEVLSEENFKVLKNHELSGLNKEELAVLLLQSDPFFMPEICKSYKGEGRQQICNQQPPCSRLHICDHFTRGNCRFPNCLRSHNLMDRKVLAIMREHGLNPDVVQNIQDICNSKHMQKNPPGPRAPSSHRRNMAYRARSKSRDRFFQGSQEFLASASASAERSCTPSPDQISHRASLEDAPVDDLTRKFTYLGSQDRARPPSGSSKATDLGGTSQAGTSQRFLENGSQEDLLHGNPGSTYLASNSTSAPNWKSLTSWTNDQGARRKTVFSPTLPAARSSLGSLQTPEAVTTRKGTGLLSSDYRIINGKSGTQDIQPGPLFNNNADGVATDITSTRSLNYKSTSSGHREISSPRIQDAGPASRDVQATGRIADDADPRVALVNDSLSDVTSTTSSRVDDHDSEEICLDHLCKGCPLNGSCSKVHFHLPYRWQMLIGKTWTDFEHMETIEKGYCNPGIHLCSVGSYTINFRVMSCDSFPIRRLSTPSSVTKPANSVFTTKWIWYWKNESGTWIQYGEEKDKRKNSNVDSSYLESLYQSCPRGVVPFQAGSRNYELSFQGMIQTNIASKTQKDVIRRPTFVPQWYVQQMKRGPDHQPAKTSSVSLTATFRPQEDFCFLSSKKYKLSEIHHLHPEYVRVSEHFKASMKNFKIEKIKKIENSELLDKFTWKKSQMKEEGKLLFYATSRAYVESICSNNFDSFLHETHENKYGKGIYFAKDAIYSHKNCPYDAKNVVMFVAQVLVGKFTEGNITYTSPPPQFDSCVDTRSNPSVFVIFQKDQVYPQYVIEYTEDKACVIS

B1: GST-hHSF1 (natural protein, human, UniProt Q00613 1-529, looked up)
chain: MDLPVGPGAAGPSNVPAFLTKLWTLVSDPDTDALICWSPSGNSFHVFDQGQFAKEVLPKYFKHNNMASFVRQLNMYGFRKVVHIEQGGLVKPERDDTEFQHPCFLRGQEQLLENIKRKVTSVSTLKSEDIKIRQDSVTKLLTDVQLMKGKQECMDSKLLAMKHENEALWREVASLRQKHAQQQKVVNKLIQFLISLVQSNRILGVKRKIPLMLNDSGSAHSMPKYSRQFSLEHVHGSGPYSAPSPAYSSSSLYAPDAVASSGPIISDITELAPASPMASPGGSIDERPLSSSPLVRVKEEPPSPPQSPRVEEASPGRPSSVDTLLSPTALIDSILRESEPAPASVTALTDARGHTDTEGRPPSPPPTSTPEKCLSVACLDKNELSDHLDAMDSNLDNLQTMLSSHGFSVDTSALLDLFSPSVTVPDMSLPDLDSSLASIQELLSPQEPPRPPEAENSSPDSGKQLVHYTAQPLFLLDPGSVDTGSNDLPVLFELGEGSYFSEGDGFAEDPTISLLTGSEPPKAKDPTVS
notes: human HSF1 fused to GST; the legend marks 'full-length GST-fusion proteins'; source: E. coli, purified (Glutathione Sepharose 4B)
- binding result: binds
